One may read the EC50 as the concentration that produces a half-maximal response.

The record followed here is PMC11410649 (Nature, 2024).

Experiment [1] concerns the target NPR2 extracellular domain with C-terminal MycMycHis (Homo sapiens, UniProt P20594). The experiment can be described thus: SPR. Background: In SPR one partner is held on a chip, and binding of the other changes the refractive index at the surface.
In a further experiment the target is mouse NPR1 protein (mouse, UniProt P18293). The experiment can be described thus: SPR.
Chain of mouse NPR1 protein (P18293 29-469): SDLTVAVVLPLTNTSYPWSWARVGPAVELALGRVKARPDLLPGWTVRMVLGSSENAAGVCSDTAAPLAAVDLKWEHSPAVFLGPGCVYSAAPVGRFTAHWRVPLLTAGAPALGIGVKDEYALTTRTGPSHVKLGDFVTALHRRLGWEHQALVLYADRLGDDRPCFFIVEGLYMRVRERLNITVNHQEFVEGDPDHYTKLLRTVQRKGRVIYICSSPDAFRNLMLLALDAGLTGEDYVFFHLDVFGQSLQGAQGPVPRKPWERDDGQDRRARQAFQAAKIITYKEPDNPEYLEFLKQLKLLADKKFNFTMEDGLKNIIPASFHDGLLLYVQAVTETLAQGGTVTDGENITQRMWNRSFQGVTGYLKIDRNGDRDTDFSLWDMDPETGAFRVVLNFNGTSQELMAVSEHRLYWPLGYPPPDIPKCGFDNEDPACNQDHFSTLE
Experiment [2] concerns the target T1, atrial natriuretic peptide (human, UniProt P01160).
T1 chain: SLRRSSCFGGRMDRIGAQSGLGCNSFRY
As to the kind of experiment: SPR.

Experiment [3] deals with T2, monkey NPR1 extracellular domain with C-terminal MycMycHis (Macaca fascicularis).
T2 chain: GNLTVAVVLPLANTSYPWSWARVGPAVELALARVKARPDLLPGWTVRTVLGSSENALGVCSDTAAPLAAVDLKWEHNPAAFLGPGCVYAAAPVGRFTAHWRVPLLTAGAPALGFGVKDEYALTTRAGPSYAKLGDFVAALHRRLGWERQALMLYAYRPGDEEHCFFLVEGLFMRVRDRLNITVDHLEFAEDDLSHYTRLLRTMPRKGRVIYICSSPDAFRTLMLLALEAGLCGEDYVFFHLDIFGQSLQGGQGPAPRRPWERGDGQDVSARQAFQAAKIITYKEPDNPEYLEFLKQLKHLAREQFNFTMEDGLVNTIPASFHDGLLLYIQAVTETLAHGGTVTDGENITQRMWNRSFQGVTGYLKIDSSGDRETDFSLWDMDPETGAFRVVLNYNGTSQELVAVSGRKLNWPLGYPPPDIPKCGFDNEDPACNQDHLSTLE
The experiment can be described thus: SPR.

The target of experiment [4] is NPR3 extracellular domain with C-terminal MycMycHis (Homo sapiens, UniProt P17342). As to the kind of experiment: SPR.
Chain of NPR3 extracellular domain with C-terminal MycMycHis (P17342 27-481): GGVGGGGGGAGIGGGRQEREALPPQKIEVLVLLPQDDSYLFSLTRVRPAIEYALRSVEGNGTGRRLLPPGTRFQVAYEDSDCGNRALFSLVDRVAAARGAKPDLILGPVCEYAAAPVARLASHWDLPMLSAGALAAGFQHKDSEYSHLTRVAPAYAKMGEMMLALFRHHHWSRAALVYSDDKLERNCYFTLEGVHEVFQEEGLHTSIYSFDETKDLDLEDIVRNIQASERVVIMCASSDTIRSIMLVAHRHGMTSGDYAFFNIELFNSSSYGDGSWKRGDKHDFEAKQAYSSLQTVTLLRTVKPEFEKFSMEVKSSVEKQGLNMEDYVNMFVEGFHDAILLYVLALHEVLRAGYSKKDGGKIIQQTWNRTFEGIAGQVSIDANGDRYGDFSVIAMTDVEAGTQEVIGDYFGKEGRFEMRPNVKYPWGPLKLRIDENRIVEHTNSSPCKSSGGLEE
The target in experiment [5] is T3, human NPR1 on HEK293 cells (Homo sapiens, UniProt P16066). As to the kind of experiment: flow cytometry on cells. Background: In flow cytometry, cells or beads pass a laser one at a time.
In experiment [6] the target is T4, cynomolgus monkey NPR1 on HEK293 cells (Macaca fascicularis).
T4 chain: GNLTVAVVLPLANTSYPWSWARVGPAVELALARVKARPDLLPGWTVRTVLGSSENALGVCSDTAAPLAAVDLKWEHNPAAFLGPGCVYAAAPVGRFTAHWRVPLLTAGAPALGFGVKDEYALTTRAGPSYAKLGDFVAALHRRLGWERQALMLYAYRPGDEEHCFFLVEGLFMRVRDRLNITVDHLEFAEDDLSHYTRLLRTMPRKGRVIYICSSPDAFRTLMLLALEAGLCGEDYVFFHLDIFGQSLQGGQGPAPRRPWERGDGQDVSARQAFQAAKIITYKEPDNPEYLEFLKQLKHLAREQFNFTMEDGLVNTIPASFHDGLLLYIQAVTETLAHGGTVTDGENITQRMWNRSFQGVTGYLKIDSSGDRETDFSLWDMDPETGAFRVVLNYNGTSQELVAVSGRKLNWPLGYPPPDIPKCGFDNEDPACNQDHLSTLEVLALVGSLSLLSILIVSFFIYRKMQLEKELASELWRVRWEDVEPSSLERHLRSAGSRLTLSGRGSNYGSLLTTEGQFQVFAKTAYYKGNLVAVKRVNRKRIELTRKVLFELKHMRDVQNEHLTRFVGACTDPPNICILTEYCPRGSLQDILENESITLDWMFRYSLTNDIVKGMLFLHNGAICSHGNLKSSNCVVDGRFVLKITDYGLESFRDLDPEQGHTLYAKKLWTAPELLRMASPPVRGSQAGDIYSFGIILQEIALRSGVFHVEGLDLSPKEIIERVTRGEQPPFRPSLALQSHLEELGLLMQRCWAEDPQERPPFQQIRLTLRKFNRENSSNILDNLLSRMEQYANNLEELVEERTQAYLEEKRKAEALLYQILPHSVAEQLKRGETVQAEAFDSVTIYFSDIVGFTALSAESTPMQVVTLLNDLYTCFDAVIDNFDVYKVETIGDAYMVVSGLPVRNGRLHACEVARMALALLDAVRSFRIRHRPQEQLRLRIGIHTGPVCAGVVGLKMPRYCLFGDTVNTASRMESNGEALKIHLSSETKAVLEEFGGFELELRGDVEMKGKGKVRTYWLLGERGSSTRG
The experiment can be described thus: flow cytometry on cells.

A further experiment addresses canine NPR1 (Canis lupus familiaris, UniProt A0A8I3MHU3). As to the kind of experiment: cell-based or functional assay.
Experiment [7] concerns the target T3, human NPR1 on HEK293 cells. The experiment can be described thus: flow cytometry on cells. The source holds these as a separate data set.
The target of experiment [8] is T4, cynomolgus monkey NPR1 on HEK293 cells. As to the kind of experiment: flow cytometry on cells.
Experiment [9] concerns the target T3, human NPR1 on HEK293 cells. As to the kind of experiment: flow cytometry on cells. The source holds these as a separate data set.
The target in experiment [10] is T4, cynomolgus monkey NPR1 on HEK293 cells. The experiment can be described thus: flow cytometry on cells.

Read-outs that look alike come from different tables or passages of the source. A value given as a limit tells only on which side of the number the result lay.

Chain of NPR2 extracellular domain with C-terminal MycMycHis (P20594 23-458): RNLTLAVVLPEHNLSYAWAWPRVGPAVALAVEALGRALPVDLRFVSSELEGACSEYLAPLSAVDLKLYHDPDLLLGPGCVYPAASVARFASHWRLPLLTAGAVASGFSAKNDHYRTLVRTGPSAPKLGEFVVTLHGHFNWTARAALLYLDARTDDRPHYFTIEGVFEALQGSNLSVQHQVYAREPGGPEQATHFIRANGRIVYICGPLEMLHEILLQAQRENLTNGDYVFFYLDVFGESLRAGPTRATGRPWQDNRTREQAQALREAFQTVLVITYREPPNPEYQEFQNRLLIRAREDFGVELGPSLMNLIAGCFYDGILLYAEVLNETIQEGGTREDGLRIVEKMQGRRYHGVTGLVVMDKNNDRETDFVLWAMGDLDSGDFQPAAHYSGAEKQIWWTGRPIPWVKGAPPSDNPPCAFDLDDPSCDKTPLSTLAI

B1: REGN5381 (antibody, V domains shown)
VH: QVQLVQSGAEVKKPGASVTVSCKASGYTFTDYYMHWVRQAPGQGLEWMGWIKPNSGGTNSAQRFQGRITMTWDTSISTAYMELSRLRSDDTAVYYCSRGGPVMNYYYYYGMDVWGQGTTVTVSS
VL: NIQMTQSPSSLSASVGDRVTITCRASQSIDSYLNWYQQKPGKAPKLLIYVASSLQSGVPSRFSGSGSGKDFTLTISSLQPEDFATYYCQQSYSIPTFGQGTRLEIK
For the molecule B1, the binding result is “no binding” in experiment [1]; “no binding” in the experiment with mouse NPR1 protein; “no binding” in experiment [2]; “binds” in experiment [3]; “no binding” in [4]. Further, the concentration giving a half-maximal response (EC50) in experiment [5] came out at 5.69 nM; in [6], 3.01 nM; in experiment [7], 4.58 nM; in experiment [8] it was 2.27 nM; in experiment [9] it was 4.56 nM; in experiment [10], 2.42 nM. For the same molecule, in the experiment with canine NPR1, the “activation of canine NPR1 (Supplementary Fig. 1); EC50” value was > 100 nM.
